# In US20100119588A1:
# Target: hemagglutinin H3 on influenza virus A/Aichi/2/68 strain (H3N2) (influenza virus A/Aichi/2/68 (H3N2)) (UniProt P03437)
# Test: cell-based or functional assay
row,Substance,"IC50(µM), plaque assay, infection of MDCK cells"
1,C18-s2(r1-4) (C18-PLRA peptide amide),14 µM
2,C18-s2(1-5) (C18-ARLPR peptide amide),1.55 µM
3,C18-s2(r1-5) (C18-RPLRA peptide amide),0.94 µM
4,C18-s2(1-8) (C18-ARLPRTMV peptide amide),1.4 µM

# Target: hemagglutinin H3 on influenza virus A/Aichi/2/68 strain (H3N2) (influenza virus A/Aichi/2/68 (H3N2)) (UniProt P03437)
# Test: cell-based or functional assay
# Remark: another data set of the same source
row,Substance,"IC50(µM), plaque assay, infection of MDCK cells"
1,C18-s2(1-4)P4A (C18-ARLA peptide amide),> 100 µM
2,C18-s2(8-15) (C18-VHPKPAQP peptide amide),10.5 µM
3,C18-s2(1-7) (C18-ARLPRTM peptide amide),9.1 µM
4,C18-s2(1-5) (C18-ARLPR peptide amide),3 µM
5,C18-s2(1-2) (C18-AR peptide amide),> 100 µM
6,C18-s2(5-11) (C18-RTMVHPK peptide amide),> 100 µM
7,C18-s2(1-3) (C18-ARL peptide amide),> 100 µM
8,C18-s2(2-8) (C18-RLPRTMV peptide amide),> 100 µM
9,C18-s2(1-6) (C18-ARLPRT peptide amide),5 µM
10,C18-s2(r1-8) (C18-VMTRPLRA peptide amide),226 µM
11,C18-s2(1-4) (C18-ARLP peptide amide),21 µM
